From paper PMC8548392, “Miniature type V-F CRISPR-Cas nucleases enable targeted DNA modification in cells” (Nature Communications, 2021)
Substitutions are numbered along the chain they refer to. In names and notes the source's numbering stands.

What was measured:
[1] = target: AsCas12f1 (Acidibacillus sulfuroxidans Cas12f1) (Acidibacillus sulfuroxidans); experiment: mass photometry; binary complex with gRNA; 1 µM Cas12f1 protein and 500 nM gRNA in complex assembly buffer (10 mM Tris-HCl pH 7.5, 100 mM NaCl, 1 mM EDTA, 1 mM DTT), 30 min at 37 °C, then diluted 1:10
[2] = target: AsCas12f1 (Acidibacillus sulfuroxidans Cas12f1) (Acidibacillus sulfuroxidans); experiment: mass photometry; ternary complex with gRNA and dsDNA target; 200 nM Cas12f1 RNP and 25 nM DNA in binding buffer (40 mM Tris-HAc pH 8.4, 5 mM Mg acetate), 30 min at 45 °C, then diluted 1:10
[3] = target: the molecule itself; experiment: mass photometry; binary complex with gRNA; 1 µM Cas12f1 protein and 500 nM gRNA in complex assembly buffer (10 mM Tris-HCl pH 7.5, 100 mM NaCl, 1 mM EDTA, 1 mM DTT), 30 min at 37 °C, then diluted 1:10
dSpCas12f1 [4] = target: T1, dSpCas12f1 (Syntrophomonas palmitatica, UniProt P0DW62 1-497, D228A); experiment: mass photometry; binary complex 179 kDa, 2:1 protein:gRNA; EMSA: 40 mM Tris, 20 mM acetic acid pH 8.4, 1 mM EDTA, 0.1 mg/ml BSA, 10% glycerol, 5 mM Mg acetate, 1 nM DNA, 0-250 nM RNP, 30 min at room temperature or as indicated. Mass photometry: binary in 10 mM Tris-HCl pH 7.5, 100 mM NaCl, 1 mM EDTA, 1 mM DTT, 37 C; ternary in 40 mM Tris-acetate pH 8.4, 5 mM Mg acetate, 45 C; details: protein: recombinant; tags: 10xHis-MBP-TEV tag removed; chain copies: 2; single chain, folded
T1 sequence: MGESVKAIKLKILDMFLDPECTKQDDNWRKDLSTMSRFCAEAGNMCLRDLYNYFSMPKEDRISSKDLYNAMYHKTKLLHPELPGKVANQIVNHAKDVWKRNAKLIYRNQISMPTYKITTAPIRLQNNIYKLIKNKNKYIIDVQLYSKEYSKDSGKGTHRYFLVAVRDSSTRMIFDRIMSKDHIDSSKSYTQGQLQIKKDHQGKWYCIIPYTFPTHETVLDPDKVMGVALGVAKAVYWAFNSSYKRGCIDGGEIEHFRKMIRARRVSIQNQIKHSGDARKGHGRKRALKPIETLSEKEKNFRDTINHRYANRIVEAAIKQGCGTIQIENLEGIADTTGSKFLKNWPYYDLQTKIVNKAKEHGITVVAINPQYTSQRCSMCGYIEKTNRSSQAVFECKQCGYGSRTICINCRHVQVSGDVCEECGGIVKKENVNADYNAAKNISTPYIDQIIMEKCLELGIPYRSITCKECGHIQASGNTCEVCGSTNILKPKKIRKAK

dSpCas12f1 [5] = target: T1, dSpCas12f1; experiment: mass photometry; ternary 2:1:1, 5 mM Mg2+, incubated at 45 C; EMSA: 40 mM Tris, 20 mM acetic acid pH 8.4, 1 mM EDTA, 0.1 mg/ml BSA, 10% glycerol, 5 mM Mg acetate, 1 nM DNA, 0-250 nM RNP, 30 min at room temperature or as indicated. Mass photometry: binary in 10 mM Tris-HCl pH 7.5, 100 mM NaCl, 1 mM EDTA, 1 mM DTT, 37 C; ternary in 40 mM Tris-acetate pH 8.4, 5 mM Mg acetate, 45 C; details: protein: recombinant; tags: 10xHis-MBP-TEV tag removed; chain copies: 2; label: 32P 5'-end in EMSA; guide RNA + DNA duplex
dAsCas12f1 [6] = target: T2, dAsCas12f1 (Acidibacillus sulfuroxidans, UniProt A0A2U3D0N8 1-422, D225A); experiment: as above; details: protein: recombinant; tags: 10xHis-MBP-TEV tag removed; chain copies: 2; label: 32P 5'-end in EMSA; guide RNA + DNA duplex
T2 sequence: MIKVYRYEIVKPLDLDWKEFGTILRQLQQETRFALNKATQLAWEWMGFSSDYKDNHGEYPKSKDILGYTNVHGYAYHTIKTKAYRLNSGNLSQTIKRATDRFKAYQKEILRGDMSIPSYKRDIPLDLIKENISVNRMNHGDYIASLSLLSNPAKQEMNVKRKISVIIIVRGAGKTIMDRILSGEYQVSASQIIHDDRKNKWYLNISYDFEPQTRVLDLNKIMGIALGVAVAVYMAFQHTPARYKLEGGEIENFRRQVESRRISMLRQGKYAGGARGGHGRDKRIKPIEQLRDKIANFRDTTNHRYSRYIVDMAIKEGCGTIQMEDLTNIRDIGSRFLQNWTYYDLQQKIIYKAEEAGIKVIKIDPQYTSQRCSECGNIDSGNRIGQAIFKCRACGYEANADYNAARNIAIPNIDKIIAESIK

dSpCas12f1 [7] = target: T1, dSpCas12f1; experiment: EMSA; 5 mM Mg2+, room temperature; EMSA: 40 mM Tris, 20 mM acetic acid pH 8.4, 1 mM EDTA, 0.1 mg/ml BSA, 10% glycerol, 5 mM Mg acetate, 1 nM DNA, 0-250 nM RNP, 30 min at room temperature or as indicated. Mass photometry: binary in 10 mM Tris-HCl pH 7.5, 100 mM NaCl, 1 mM EDTA, 1 mM DTT, 37 C; ternary in 40 mM Tris-acetate pH 8.4, 5 mM Mg acetate, 45 C; details: protein: recombinant; tags: 10xHis-MBP-TEV tag removed; chain copies: 2; label: 32P 5'-end; guide RNA + ssDNA
dAsCas12f1 [8] = target: T2, dAsCas12f1; experiment: as above; details: protein: recombinant; tags: 10xHis-MBP-TEV tag removed; chain copies: 2; label: 32P 5'-end; guide RNA + ssDNA

“AsCas12f1 (Acidibacillus sulfuroxidans Cas12f1) (from UniProt A0A2U3D0N8 1-422) (enzyme)” showed a stoichiometry N [1] of 2 and a stoichiometry N [2] of 2.

B1: Nuclease inactivated or dead (d) SpCas12f1 (D228A) (enzyme, Syntrophomonas palmitatica, UniProt P0DW62 1-497, looked up)
chain: T1 sequence
notes: SpCas12f1, type V-F CRISPR-Cas nuclease of Syntrophomonas palmitatica, 497 aa, with D228A in the RuvC active site; The tag was removed at a TEV site (ENLYFQS), so a residue of the site may remain at the N-terminus; also called dCas12f1; source: E. coli Arctic Express (DE3), purified (Ni2+ HiTrap chelating, heparin, TEV cleavage, heparin); not shown: 10xHis, N-terminal, cleaved; MBP, N-terminal, …
B1 was tested, and the “stoichiometry N” value [3] was 2.

B2: SpCas12f1 sgRNA T1, 18 nt spacer (structured_RNA)
RNA: GGGAUUUACUCUGUUUCGCGCGCCAGGGCAGUUAGGUGCCCUAAAAGAGCGAAGUGGCCGAAAGGAAAGGCUAACGCUUCUCUAACGCUACGGCGACCUUGGCGAAAUGCCAUCAAUACCACGCGGCCCGAAAGGGUUCGCGCGAAACUGAGUAAUGAAAGUCGCAUCUUGCGUAAGCGCGUGGAUUGAAACAGUUGACCCAACGUCGCC
B2: binds (dSpCas12f1 [4]).

B3: Sp sgRNA (18 nt spacer) + dsDNA target with PAM (mixed)
DNA 1: GCACCTTACTGCAAGGTAGCCACGTTCAGTTGACCCAACGTCGCCGGCGTGCACAATCTAGATGCATCAGCTGC
DNA 2: GCAGCTGATGCATCTAGATTGTGCACGCCGGCGACGTTGGGTCAACTGAACGTGGCTACCTTGCAGTAAGGTGC
B3: binds (dSpCas12f1 [5]).

B4: As sgRNA + dsDNA target with PAM (mixed)
DNA 1: B3 DNA 1 with C21G, A22T, C23A, G24T, C27A
DNA 2: B3 DNA 2 with G48T, C51A, G52T, T53A, G54C
B4: binds (dAsCas12f1 [6]).

B5: Sp sgRNA (18 nt spacer) + ssDNA target strand (mixed)
DNA: B3 DNA 2
B5: binds (dSpCas12f1 [7]).

B6: As sgRNA + ssDNA target strand (mixed)
DNA: B3 DNA 2 with G48T, C51A, G52T, T53A, G54C
B6: binds (dAsCas12f1 [8]).
